Data: patent publication US20190194326A1

Columns and labels:
[1] = biological target: CD4 on chimp PBMC cells (chimp) (UniProt P16004); assay: flow cytometry, chimp PBMC X282, single label control Leu3a-PE
[2] = biological target: CD4 on chimp PBMC cells (chimp) (UniProt P16004); assay: flow cytometry, chimp PBMC X301, single label control Leu3a-PE
[3] = biological target: CD4 on chimp PBMC cells (chimp) (UniProt P16004); assay: flow cytometry, chimp PBMC X282; 1st Leu3a binding, 2nd B4 exposure; Leu3a+ B4- population
[4] = biological target: CD4 on chimp PBMC cells (chimp) (UniProt P16004); assay: flow cytometry, chimp PBMC X301; 1st Leu3a binding, 2nd B4 exposure; Leu3a+ B4- population
[5] = biological target: CD4 on chimp PBMC cells (chimp) (UniProt P16004); assay: flow cytometry, chimp PBMC X282; 1st B4 binding, 2nd Leu3a exposure; Leu3a+ B4- population; competitor B4 pre-bound
[6] = biological target: CD4 on chimp PBMC cells (chimp) (UniProt P16004); assay: flow cytometry, chimp PBMC X301; 1st B4 binding, 2nd Leu3a exposure; Leu3a+ B4- population; competitor B4 pre-bound
[7] = biological target: CD4 on chimp PBMC cells (chimp) (UniProt P16004); assay: flow cytometry, chimp PBMC X282; 1st B4 binding, 2nd Leu3a exposure; double stained population; competitor B4 pre-bound
[8] = biological target: CD4 on chimp PBMC cells (chimp) (UniProt P16004); assay: flow cytometry, chimp PBMC X301; 1st B4 binding, 2nd Leu3a exposure; double stained population; competitor B4 pre-bound

Leu3a (antibody)
percent positive PBMC [1]: 25.5% | percent positive PBMC [2]: 44% | percent positive PBMC [3]: 0.1% | percent positive PBMC [4]: 0.3% | percent positive PBMC [5]: 0% | percent positive PBMC [6]: 0% | percent positive PBMC [7]: 1.2% | percent positive PBMC [8]: 3%
